Data: publication PMC5773217, “Xylose donor transport is critical for fungal virulence” (PLoS Pathogens, 2018)

How the values were obtained:
[1] = system: O=c1ccn([C@@H]2O[C@H](COP(=O)(O)OP(=O)(O)O[C@H]3OC[C@@H](O)[C@H](O)[C@H]3O)[C@@H](O)[C@H]2O)c(=O)[nH]1; experiment: cells, lysate or membranes; conditions: antiport, preloaded with 10 mM UMP; 2 min; UDP-Xyl 0-100 μM
Gmt2 = target: T1, Gmt2 (Cryptococcus neoformans, UniProt J9VY61); experiment: uptake into reconstituted proteoliposomes, LC-MS/MS; type: biochemical; conditions: 37°C
T1 construct: gene CNAG_03426; full coding region, C-terminal His/V5 tag kept, pYES-DEST52 in S. cerevisiae INVSc1, membrane protein reconstituted into proteoliposomes

Gmt1 = target: T2, Gmt1 (Cryptococcus neoformans, UniProt J9VRU7); experiment: as above; type: biochemical; conditions: 37°C
T2 construct: gene CNAG_05817; full coding region, C-terminal His/V5 tag kept, pYES-DEST52 in S. cerevisiae INVSc1, membrane protein reconstituted into proteoliposomes

[2] = antiport, preloaded with 30 mM GMP, 16-substrate mixture, 50 μM each, 10 min
[3] = antiport counter-substrate, 30 mM GMP preloaded, GDP-Man outside

T2 sequence (J9VRU7 entry or part of it): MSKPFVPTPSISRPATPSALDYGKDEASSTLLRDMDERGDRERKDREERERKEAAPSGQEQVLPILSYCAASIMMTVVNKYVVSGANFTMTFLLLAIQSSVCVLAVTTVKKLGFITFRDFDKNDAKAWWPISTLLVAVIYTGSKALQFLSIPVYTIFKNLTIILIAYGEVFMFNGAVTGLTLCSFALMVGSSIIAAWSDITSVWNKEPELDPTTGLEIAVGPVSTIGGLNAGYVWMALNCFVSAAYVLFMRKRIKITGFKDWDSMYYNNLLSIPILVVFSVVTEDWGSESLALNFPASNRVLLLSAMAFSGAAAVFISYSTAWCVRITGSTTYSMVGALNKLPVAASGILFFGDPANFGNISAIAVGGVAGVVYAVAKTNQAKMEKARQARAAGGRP
T1 sequence (J9VY61 entry or part of it): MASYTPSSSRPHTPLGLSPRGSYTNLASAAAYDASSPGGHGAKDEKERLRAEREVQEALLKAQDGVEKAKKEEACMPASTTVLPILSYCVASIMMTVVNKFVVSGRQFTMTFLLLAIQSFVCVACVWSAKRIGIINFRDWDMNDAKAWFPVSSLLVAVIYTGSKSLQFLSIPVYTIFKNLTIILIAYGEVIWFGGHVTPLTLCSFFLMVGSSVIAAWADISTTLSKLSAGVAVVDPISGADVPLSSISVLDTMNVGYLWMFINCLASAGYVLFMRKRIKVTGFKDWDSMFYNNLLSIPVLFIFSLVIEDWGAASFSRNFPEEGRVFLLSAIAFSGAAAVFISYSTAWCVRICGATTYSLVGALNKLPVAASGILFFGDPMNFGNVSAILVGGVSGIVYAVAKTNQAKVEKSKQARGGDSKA

Molecule | Km [1] | kcat [1] | further results
Uxt1 (Cryptococcus neoformans H99) | 1.0 ± 0.2 µM | 0.9 s⁻¹ | –
Nc1nc2c(ncn2[C@@H]2O[C@H](COP(=O)(O)OP(=O)(O)O[C@H]3O[C@H](CO)[C@@H](O)[C@H](O)[C@@H]3O)[C@@H](O)[C@H]2O)c(=O)[nH]1 [GDP-Man] | – | – | uptake into reconstituted proteoliposomes, LC-MS/MS (Gmt2; [2]): Both proteins transported GDP-Man and smaller amounts of other GDP-sugars in exchange for GMP; uptake into reconstituted proteoliposomes, LC-MS/MS (Gmt1; [2]): Both proteins transported GDP-Man and smaller amounts of other GDP-sugars in exchange for GMP
Uxt2 (Cryptococcus neoformans H99) | 2.2 ± 0.5 µM | 0.4 s⁻¹ | –
Nc1nc2c(ncn2[C@@H]2O[C@H](COP(=O)(O)O)[C@@H](O)[C@H]2O)c(=O)[nH]1 [GMP] | – | – | uptake into reconstituted proteoliposomes, LC-MS/MS (Gmt2; [3]): Both proteins transported GDP-Man and smaller amounts of other GDP-sugars in exchange for GMP; uptake into reconstituted proteoliposomes, LC-MS/MS (Gmt1; [3]): Both proteins transported GDP-Man and smaller amounts of other GDP-sugars in exchange for GMP
